This test concerns the target T1, RAGE receptors (Mus musculus, UniProt Q62151).
T1 construct: from tissue; host or cells: mouse brain (APPSWE Model 2789 and C57BL/6 mice), after tail vein injection
Description: Brain autoradiography (AR) binding localization after tail vein injection in AD and normal mice. The settings on record: 50 μCi per tail vein at day 0, sacrificed day 3. Type of test: in vivo. The source says:
Four APPSWE Model 2789 mice (AD) and 4 C57BL/6 mice (normal) receive an injection of 50 μCi of Sn-IBD-Aβ(16-23) per tail vein at day 0.
Additionally, four APPSWE Model 2789 mice (AD) and 4 C57BL/6 mice (normal) receive an injection of 50 μCi of Sn-IBD-K-Aβ(23-17) per tail vein at day 0.
All the animals are sacrificed on day 3 post Sn-Aβ-AA injection and brains preserved and autoradiography (AR) binding localization in AD-specific areas mapped.
Findings—Histopathological comparison and autoradiography dosimetry are measured in each mouse brain in comparative anatomic regions.

T1 sequence (Q62151 23-402): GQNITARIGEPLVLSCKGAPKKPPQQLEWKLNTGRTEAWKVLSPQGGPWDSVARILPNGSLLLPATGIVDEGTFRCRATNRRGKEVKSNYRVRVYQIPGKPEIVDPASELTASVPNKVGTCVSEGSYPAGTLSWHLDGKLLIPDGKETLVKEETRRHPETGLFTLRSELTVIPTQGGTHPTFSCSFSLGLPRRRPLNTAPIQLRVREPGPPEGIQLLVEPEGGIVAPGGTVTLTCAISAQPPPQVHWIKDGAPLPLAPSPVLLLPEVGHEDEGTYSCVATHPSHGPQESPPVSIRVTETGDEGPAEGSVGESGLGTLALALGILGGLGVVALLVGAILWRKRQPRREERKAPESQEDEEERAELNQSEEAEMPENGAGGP

As to “Sn-IBD-Aβ(16-23) (KLVFFAED; Amyloid-beta protein 42 Sn-IBD conjugate; UniProt P05067 687-694, looked up, fragment)”, the “AR distribution of RAGE binding in brain” value (RAGE expressing APPSWE Model 2789 mice (AD)) is on record as “increase in RAGE binding”. Besides, the “AR distribution of RAGE binding in cortical and hippocampal areas” value (normal C57BL/6 mice) is on record as “minimal”.

The values are drawn from patent US20230181770A1, “COMPOSITIONS AND METHODS OF TARGETING AND IMAGING AGED MICROGLIA WITH Aß PEPTIDE AMINO ACID RESIDUES FOR V-DOMAIN BINDING OF RAGE” (Neurosn, Inc., priority 2018, published 2023).
